The source of these data is PMC12887176, “IRF1 is a context-dependent homeostatic gatekeeper of basal immunity and antiviral readiness”.

In this data set the target is T1, IRF1 DBD-mNeonGreen (UniProt P10914 1-136).
T1 sequence: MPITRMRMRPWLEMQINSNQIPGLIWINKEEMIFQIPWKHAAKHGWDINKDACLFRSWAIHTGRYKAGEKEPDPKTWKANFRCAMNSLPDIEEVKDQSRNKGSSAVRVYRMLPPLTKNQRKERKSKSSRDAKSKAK
As to the kind of experiment: mass photometry; 1:1 protein:DNA; ~45 to ~65 kDa; 1:1 molar protein:DNA, 4 h at room temperature; protein lysed in PBS with 360 mM NaCl, 10% glycerol, DTT (assay buffers and pH not given); PBM: PBS, 360 mM NaCl, 1 mM DTT, 2% milk, 0.2% Triton X-100, room temperature. The note with it: protein: recombinant; tags: mNeonGreen fusion (42 kDa total); blunt.

B1: specific DNA (IRF1 consensus) (dsDNA)
DNA 1: GAGAAGTGAAAGTACTTTCACTTCTC
DNA 2: GAGAAGTGAAAGTACTTTCACTTCTC
Consider B1, for which the binding result was “binds”.
